These results are taken from WO2024034543A1.

Assay [1] concerns the target actin fused with ALFA tag, expressed in XTC cells. In words: single-molecule time-lapse imaging on fixed XTC cells expressing ALFA tag-fused actin; reference NbALFA WT.
Assay [2] has as its target actin fused with FLAG tag, expressed in XTC cells. Kind of assay: single-molecule time-lapse imaging on fixed XTC cells expressing tag-fused actin; reference 2H8 WT.
Assay [3] has as its target actin fused with S tag, expressed in XTC cells. In words: single-molecule time-lapse imaging on fixed XTC cells expressing tag-fused actin; reference S66B WT.
For assay [4], the target named is actin fused with TARGET tag, expressed in XTC cells. In words: single-molecule time-lapse imaging on fixed XTC cells expressing tag-fused actin; reference P20.1 WT.
The target of assay [5] is mCherry-VGLUT1 overexpressed in CTC cells. Kind of assay: single-molecule time-lapse imaging on fixed CTC cells overexpressing mCherry-VGLUT1; reference NV-Nb9 WT.
Assay [6] has as its target actin fused with HA tag, expressed in XTC cells. Kind of assay: single-molecule time-lapse imaging on fixed XTC cells expressing tag-fused actin; reference 12CA5 WT.
For assay [7], the target named is mCherry-Hommer1 overexpressed in CTC cells. In words: single-molecule time-lapse imaging on fixed CTC cells overexpressing mCherry-Hommer1; reference HS69 WT.

In assay [1], “anti-ALFA tag nanobody clone NbALFA, mutant code H2 (V27G, T28A, Y37A, E53A, R60A, V99A) (VHH)” displayed a fold rise of the dissociation constant against WT of 1000 times.
In the case of “anti-FLAG antibody clone 2H8, mutant code H1L3 (HS28A, LY96A), Fv-EGFP (from UniProt P01631 1-113)”, the fold rise of the dissociation constant against WT in assay [2] came out at 50 times.
Molecule “anti-S tag antibody clone S66B, mutant code H1L0 (HS28A), Fv-EGFP (from UniProt P03976 1-113)” had a fold rise of the dissociation constant against WT in assay [3] of 2 times.
Regarding “anti-TARGET tag antibody clone P20.1, mutant code H1L0 (HY59G), Fv-EGFP (from UniProt P01724 22-129)”, in assay [4], the fold rise of the dissociation constant against WT amounted to 10 times.

B1: anti-VGLUT nanobody clone NV-Nb9, mutant code H4 (R27G, T28A, Y32A, F37A, Y102A) (VHH)
VHH: QVQLQESGGGLVQAGDSLRLSCAASGGAWSIAGMGWARQAPGKEREFVAGITWRGGNTHYADFVKGRFTISRDNVKNTVYLQMNSLKPEDTAVYYCAANPNPSGSSVYRRNDAWGQGTQVTVSS
In turn, B1 returned a fold rise of the dissociation constant against WT in assay [5] of 50 times.

B2: anti-HA tag antibody clone 12CA5, mutant code H6L2 (HT28A, HY32A, LY49A), Fv-EGFP (protein)
heavy: EVKLVESGGDLVKPGGSLKLSCAASGFAFSSAGMSWVRQTPDKRLEWVATISRGGSYTYYPDSVKGRFTISRDNAKNTLYLQMSSLKSEDTAMYYCARRETYDEKGFAYWGQGTTVTVSS
light: DIELTQSPSSLTVTAGEKVTMSCKSSQSLLNSGNQKNYLTWYQQKPGQPPKLLIAWASTRESGVPDRFTGSGSGRDFTLTISSVQAEDLAVYYCQNDNSHPLTFGAGTKLELKA
Consider B2, for which the fold rise of the dissociation constant against WT in assay [6] was 100 times.

B3: anti-Homer nanobody clone HS69, mutant code H3 (S27G, T28A, F37A, Y59A) (VHH)
VHH: QVKLQESGGRLVQAGGSLRLSCTASGGAFSNSAMGWARQAPGKQRELVASIANEGQFTNAAASVKGRFTISRDNTKNVLFLQMNSLKPEDTAVYYCKLYSGRIGSSDVWGQGTQVTVSS
For the molecule B3, the fold rise of the dissociation constant against WT in assay [7] is 100 times.
